Numbering of substitutions follows the chain as printed.
B1: AB-009615 (antibody, V domains shown)
VH: QVQLVESGGGVVQPGRSLRLSCAASGFTFSSYGMHWVRQAPGKGLEWVAVIWYDGSNKYYADSVKGRFTISRDNSKNTLYLQMNSLRAEDTAVYYCAKVGSPYCSGGSCYSGYFDYWGQGTLVTVSS
VL: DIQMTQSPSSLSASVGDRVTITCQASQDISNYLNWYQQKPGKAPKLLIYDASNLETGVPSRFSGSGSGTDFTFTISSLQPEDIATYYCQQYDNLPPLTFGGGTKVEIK
B2: AB-009620 (antibody, V domains shown)
VH: QITLKESGPTLVKPTQTLTLTCTFSGFSLSTSGVGVGWIRQPPGKALEWLALIYWDDDKRYSPSLKSRLTITKDTSKNQVVLTMTNMDPVDTATYYCAHHEVATVFDYWGQGTLVTVSS
VL: QSALTQPASVSGSPGQSITISCTGTSSDVGAYNYVSWYQQHPGKAPKLMIYEVSNRPSGVSNRFSGSKSGNTASLTISGLQAEDEADYYCSSYTSSSTVFGGGTKLTVL
B3: AB-009734 (antibody, V domains shown)
VH: QVHLVQSGAEVKTPGASVRVSCKASGYTFTSHYMHWVRQAPGQGLEWMGLINPSGSGTAYPQHFQGRVTMTRDTSTTTDYMDLSSLRSEDTAMYFCARMERSGAFDLWGQGTMVTVSS
VL: EIVLTQSPGTLSLSPGERATLSCRASQTISSRYLAWYYQKPGQAPRLLIQGSSIRATGIPDRFSGSGSGTDFTLTISRLEPEDFAVYYCQHYGSSPPMYTFGQGTKLEIK
B4: AB-009661 (antibody, V domains shown)
VH: QVQLVESGGGVVQPGRSLRLSCAASGFTFSSYGMHWVRQAPGKGLEWVAVISYDGSNKYYADSVKGRFTISRDNSKNTLYLQMNSLRAEDTAVYYCAKDYGDYGGMDVWGQGTTVTVSS
VL: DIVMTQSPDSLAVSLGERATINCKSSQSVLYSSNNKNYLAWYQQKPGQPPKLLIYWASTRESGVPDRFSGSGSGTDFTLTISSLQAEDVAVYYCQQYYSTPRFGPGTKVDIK
B5: AB-009281 (antibody, V domains shown)
VH: EVQLVETGGGLIQPGGSLRLSCAASGFTVSSNYMSWVRQAPGKGLEWVSVIYSGGSTYYADSVKGRFTISRDNSKNTLYLQMNSLRAEDTAVYYCARDLYYYGMDVWGQGTTVTVSS
VL: DIQLTQSPSFLSASVGDRVTITCRASQGISSYLAWYQQKPGKAPKLLIYAASTLQSGVPSRFSGSGSGTEFTLTISSLQPEDFATYYCQQLNSYPTFGQGTKVEIK
B6: AB-009613 (antibody, V domains shown)
VH: B5 VH with T7S, L99Y, Y100G, Y101D, Y102F, G103Y, M104F, V106Y, T112L
VL: not shown
B7: AB-009271 (antibody, V domains shown)
VH: B5 VH with T7S, T28I, L99Y, Y100G, Y101D, Y102F, G103Y, M104F, V106Y, T112L
VL: EIVMTQSPATLSVSPGERATLSCRASQSVSSNLAWYQQKPGQAPRLLIYGASTRATGIPARFSGSGSGTEFTLTISSLQSEDFAVYYCQQYYNWPRTFGQGTKVEIK
B8: AB-009760 (antibody, V domains shown)
VH: EVQLVQSGAEVKKPGESLKISCKGSGYSFTSYWIGWVRQMPGKGLEWMGIIYPGDSDTRYSPSFQGQVTISADKSISTAYLQWSSLKASDTAMYYCARSRSSDYFDYWGQGTLVTVSS
VL: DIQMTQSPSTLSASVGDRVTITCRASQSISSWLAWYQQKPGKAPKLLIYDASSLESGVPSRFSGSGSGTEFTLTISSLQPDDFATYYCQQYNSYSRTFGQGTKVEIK
B9: AB-009614 (antibody, V domains shown)
VH: QVQLVESGGGVVQPGRSLRLSCAASGFTFSSYGMHWVRQAPGKGLEWVAVISYDGSNKYYADSVKGRFTISRDNSKNTLYLQMNSLRAEDTAVYYCAKDQKYYDILTGYYRSTYYYYYYGMDVWGQGTTVTVSS
VL: not shown
B10: AB-009346 (antibody, V domains shown)
VH: EVQLVESGGGVVRPGGSLRLSCAASGFTFDDYGMSWVRQAPGKGLEWVSGINWNGGSTGYADSVKGRFTISRDNAKNSLYLQMNSLRAEDTALYYCARWPLLGISGYYHYYMDVWGKGTTVTVSS
VL: QSALTQPRSVSGSPGQSVTISCTGTSSDVGGYNYVSWYQQHPGKAPKLMIYDVSKRPSGVPDRFSGSKSGNTASLTISGLQAEDEADYYCCSYAGSYTLLFGGGTKLIVL
B11: AB-009270 (antibody, V domains shown)
VH: QMQLVQSGPEVKKPGTSVKVSCKASGFTFTSSAMQWVRQARGQRLEWIGWIVVGSGNTNYAQKFQERVTITRDMSTSTAYMELSSLRSEDTAVYYCAVNYCSSTSCYDAFDIWGQGTMVTVSS
VL: not shown
B12: AB-010021 (antibody, V domains shown)
VH: B11 VH with M34V, V98A, N99V, S103G, T104G, Y107L
VL: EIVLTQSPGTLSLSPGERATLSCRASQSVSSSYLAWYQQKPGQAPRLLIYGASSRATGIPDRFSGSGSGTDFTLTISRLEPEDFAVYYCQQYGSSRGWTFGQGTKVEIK
notes: also called AB-0010021
B13: AB-010020 (antibody, V domains shown)
VH: B11 VH with M34V, V98A, N99P, Y100A, A109G
VL: not shown
B14: AB-009769 (antibody, V domains shown)
VH: EVQLVESGGGLVQPGGSLRLSCAASGFTFSSYWMSWVRQAPGKGLEWVANIKQDGSEKYYVDSVKGRFTISRDNAKNSLYLQMNSLRAEDTAVYYCARSPEVLWFGDPVLDNWFDPWGQGTLVTVSS
VL: SYELTQPPSVSVSPGQTARITCSGDALPKQYAYWYQQKPGQAPVLVIYKDSERPSGIPERFSGSSSGTTVTLTISGVQAEDEADYYCQSADSSGTYPVVFGGGTKLTVL
B15: AB-009610 (antibody, V domains shown)
VH: QVQLVQSGAEVKKPGSSVKVSCKASGGTFSNYAISWVRQAPGQGLEWMGRIIPILGIANYAQKFQGRVTITADKSTSTAYMELSSLRSEDTAVYYCATTPYYYDSSGYYLDYWGQGTLVTVSS
VL: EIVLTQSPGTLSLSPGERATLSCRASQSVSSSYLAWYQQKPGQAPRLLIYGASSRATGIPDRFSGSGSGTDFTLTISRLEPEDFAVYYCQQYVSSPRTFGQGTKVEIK
B16: AB-009747 (antibody, V domains shown)
VH: QVQLVESGGGVVQPGGSLRLSCAASGFTFSNYGMHWVRQAPGKGLEWVAFIRYDGSNEYYADSVKGRFTISRDNSKNTLYLHMNSLRPEDTAVYYCAKQGLLSNYYYGMDVWGQGTTVTVSS
VL: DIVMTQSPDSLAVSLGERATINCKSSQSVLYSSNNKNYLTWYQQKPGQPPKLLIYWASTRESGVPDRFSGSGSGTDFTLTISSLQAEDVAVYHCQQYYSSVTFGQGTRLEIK

biological target: SARS-CoV-2 "Gamma" Brazil P.1.B.1.1.28 full-length Spike protein on pseudovirus (SARS-CoV-2, UniProt P0DTC2 14-1273); test: cell-based or functional assay

Binder	Pseudovirus Neturalization [µg/mL]
B1	> 50
B2	0.327
B3	40.6
B4	> 50
B5	> 50
B6	> 50
B7	> 50
B8	19.2
B9	> 50
B10	> 50
B11	0.158
B12	5.39
B13	0.0114
B14	> 50
B15	> 50

biological target: SARS-CoV-2 "Alpha" UK B.1.1.7 full-length Spike protein on pseudovirus (SARS-CoV-2, UniProt P0DTC2 14-1273); test: cell-based or functional assay

Binder	Pseudovirus Neturalization [µg/mL]
B1	> 50
B2	0.257
B3	> 50
B4	> 50
B5	> 50
B6	7.23
B7	0.275
B8	17.7
B9	> 50
B10	0.114
B11	0.117
B12	2.69
B13	0.013
B14	> 50
B15	2.84

biological target: SARS-CoV-2 "Beta" SA B.1.351 full-length Spike protein on pseudovirus (SARS-CoV-2, UniProt P0DTC2 14-1273); test: cell-based or functional assay

Binder	Pseudovirus Neturalization [µg/mL]
B1	> 50
B2	0.563
B3	> 50
B4	> 50
B5	> 50
B6	> 50
B7	> 50
B8	> 50
B9	> 50
B10	> 50
B11	0.169
B12	8.27
B13	0.018
B14	> 50
B15	> 50

biological target: SARS-CoV-2 "Epsilon" B.1.427/9 full-length Spike protein on pseudovirus (SARS-CoV-2, UniProt P0DTC2 14-1273); test: cell-based or functional assay

Binder	Pseudovirus Neturalization [µg/mL]
B1	38.4
B2	0.974
B3	> 50
B4	> 50
B5	0.041
B6	1.16
B7	0.028
B8	14.1
B9	> 50
B10	33.6
B11	0.032
B12	0.629
B13	0.003
B14	> 50
B15	> 50

biological target: SARS-CoV-2 "Delta-plus" B.1.617.2.1 full-length Spike protein on pseudovirus (SARS-CoV-2, UniProt P0DTC2 14-1273); test: cell-based or functional assay

Binder	Pseudovirus Neturalization [µg/mL]
B1	> 50
B2	0.809
B3	> 50
B4	> 50
B5	2.29
B6	> 50
B7	> 50
B8	46.2
B9	> 50
B10	> 50
B11	0.012
B12	0.078
B13	0.001
B14	> 50
B15	> 50

biological target: SARS-CoV-2 "Delta" B.1.617.2 full-length Spike protein on pseudovirus (SARS-CoV-2, UniProt P0DTC2 14-1273); test: cell-based or functional assay

Binder	Pseudovirus Neturalization [µg/mL]
B1	> 50
B2	0.519
B3	> 50
B4	> 50
B5	0.032
B6	0.101
B7	0.012
B8	> 50
B9	31.3
B10	> 50
B11	0.03
B12	0.574
B13	0.003
B14	> 50
B15	> 50

biological target: SARS-CoV-2 spike receptor-binding domain (RBD) (SARS-CoV-2, UniProt P0DTC2 319-541); test: not given

Binder	Kd [nM]	kon [M⁻¹ s⁻¹]
B16	9.8	108000

Reference: patent publication US20240327505A1 (published 2024)
